Source: patent US9987329B2, “Methods for treating peripheral nerve damage” (Cornell University, priority 2014, dated 2018)

Key:
[1] = tested on: corneal nerves of thy1-YFP mice; experiment: Corneal micropocket assay (VEGF-B releasing pellet); assay type: in vivo, mouse
Experimental: A sucralfate/hydron pellet impregnated with VEGF-B (100 ng/pellet) or vehicle was implanted into a corneal micropocket in anesthetized thy1-YFP mice subjected to a partial lamellar incision parallel to the limbus. Rogers, M. S. et al., The mouse cornea micropocket angiogenesis assay, Nature protocols 2, 2545-2550 (2007). Mice were allowed to recover for a day, after which a subset received a corneal debridement that removed a circular 2-mm region of central epithelium and the underlying sub-basal nerves. The corneas were harvested 3 days later, fixed in 4% paraformaldehyde (PFA) for 30 minutes, mounted in Vectashield medium (Vector Labs H1000) as whole mounts, and nerves imaged using the AxioObserver system as described above.
Harvested corneas from thy1-YFP mice were fixed in 4% PFA for 1 hr and then stained with 4,6-diamidino-2-phenylindole (DAPI) to label nuclei before mounting. The YFP fluorescent nerves were imaged with a fluorescence microscope at the site of pellet implantation and at a site 180 degrees opposite to the pellet. Images were analyzed using Neurolucida. […] wild type and Vegf-b^−/− mouse corneas were flat mounted and fixed as described. Pan, Z., Fukuoka et al., FASEB J. 27, 2756-2767 (2013). Samples were stained with rabbit anti-β3 tubulin antibody (Abcam 18207) overnight at 4° C., followed by alexaFluor568-conjugated goat anti-rabbit IgG (Life Technologies A11011) at room temperature for 1 hr and counter-stained with DAPI.

[2] = tested on: trigeminal ganglion (TG) neuronal cells; experiment: Trigeminal ganglion neuronal growth assay; assay type: cell-based, mouse
Experimental: Trigeminal ganglion (TG) neuronal cells were obtained and cultured as described previously. Pan, Z., Fukuoka et al., FASEB J. 27, 2756-2767 (2013). To evaluate the effect of VEGF-B on neuronal growth, TG neuronal cells were treated with 10-100 ng/ml recombinant mouse VEGF-B^186 (R&D 767-VE-010). The VEGF-B treatments were replenished every other day. Neurite formation and growth was followed up to 3 days. […] VEGF receptors were inhibited by using neutralizing antibodies against VEGFR1 (R&D AF471), VEGFR2 (R&D MAB4431) and Neuropilin 1 (NRP1) (R&D MAB566). TG cells were incubated in a dose dependent manner with anti-VEGFR1, anti-VEGFR2 or anti-NRP1 for 1 hour prior to the addition of 50 ng/ml VEGF-B. The tyrosine kinase domains of VEGFR2 were inhibited with specific inhibitors by incubating TG neuronal cells with 10 μM SU 1498 (Sigma T4192) or 5 nM Ki 8751 (Sigma K1265) for 1 hr before adding 50 ng/ml VEGF-B. All neurite growth was imaged with an AxioObserver Z1 fluorescence microscope in the YFP channel attached to an AxioCam HRm digital camera (Zeiss) operated by AxioVision 4.0 software. Images were analyzed using Neurolucida 9 (MBF Bioscience) a quantitative nerve tracing software.

[3] = 50 ng/ml each, three days in culture (FIG. 2B)
[4] = 50 ng/ml, three days in culture (FIG. 2B)

B1: recombinant mouse VEGF-B^186 (protein, listed as Homo sapiens)
chain: MSPLLRRLLLAALLQLAPAQAPVSQPDAPGHQRKVVSWIDVYTRATCQPREVVVPLTVELMGTVAKQLVPSCVTVQRCGGCCPDDGLECVPTGQHQVRMQILMIRYPSSQLGEMSLEEHSQCECRPKKKDSAVKPDRAATPHHRPQPRSVPGWDSAPGAPSPADITHPTPAPGPSAHAAPSTTSALTPGPAAAAADAAASSVAKGGA
notes: vascular endothelial growth factor B; recombinant mouse VEGF-B186 (R&D 767-VE-010)
- innervation at sites of injury ([1]; 100 ng/pellet plus superficial corneal debridement, versus vehicle, 3 days): significantly increased innervation throughout sites of injury
- corneal nerve density or patterning ([1]; 100 ng/pellet, absence of injury, 3 days): no alteration of corneal nerve density or patterning
- nerve density at the site of pellet implantation ([1]; 100 ng/pellet, limited (focal) injury, versus vehicle): significant increased nerve density
- length of neurites compared with untreated controls ([2]; 50 ng/ml VEGF-B, 3 days in culture (FIG. 1)): almost four folds greater
- neurite elongation compared with VEGF-A treatment [2, 3]: more than 2 folds
- number of branching nodes compared with VEGF-A treated neurons [2, 3]: more than 4 folds
- pattern of neurite growth (elongation and branching) ([2]; 50 ng/ml, three days in culture (FIG. 2A)): extensive elongation and branching of the neurites
- neurite elongation compared with untreated control [2, 4]: five folds higher
- number of branching nodes compared with untreated control [2, 4]: seven fold higher
- dose dependence of neurite growth induction ([2]; 10-100 ng/ml VEGF-B (FIG. 7)): dose-dependent
- most potent dose for inducing neurite elongation and branching ([2]; increasing concentrations of VEGF-B, 3 days in culture (FIG. 7)): 50 ng/mL
